Among the data in paper PMC7573561 are Kd values, retold here.

The target of this assay is Actin (coated on BLI biosensors). Briefly: BLI; Octet RED, 25 C; APS (aminopropylsilane) biosensors coated with 10 ug/mL actin; rPDCP-1 in PBS pH 7.4 with 0.05% Tween 20 and 0.1% BSA; 300 s association, 120 s dissociation. On the technique in general: In BLI a coated tip is dipped into the sample, and binding shifts an interference pattern.

Take “Recombinant PDZ-domain-containing-protein-1 (rPDCP-1) (natural protein)”: the Kd was 0.783 µM.

As usually defined, the Kd is the free concentration of one partner at which half of the binding sites on the other are occupied at equilibrium, for simple one-to-one binding.
